Here are results for 32 variants from the RNAGym collection of RNA variant scans (doi:10.7554/elife.80360).

B1: HDV Ribozyme (parent)
chain: GGCCGGCAUGGUCCCAGCCUCCUCGCUGGCGCCGGCUGGGCAACAUUCCGAGGGGACCGUCCCCUCGGUAAUGGCGAAUGGGACCCA

The variants in the series derive from B1. The series can be described thus: self-cleavage, relative activity (ratio to wild type); higher = more cleavage; co-transcriptional.
For GGCCGGCAUGGUCCCAGCCUCCUCGCUGGCGCCGGCUGGGCAACAUUCGGAGGGGACCGUCCCCUCGUUAAUGGCGAAUGGGACCCA [C49G G68U], the self-cleavage came out at 0.808.
Take GGCCGGCAUGGUCCCAGCCUCCUCGCUGGCGCCGGCUGGGCAACAUUCGGAGGGGACCGUCCCCUCGGUAAUGGCGAAUGGAACCCA [C49G G82A]: the self-cleavage was 0.0966.
Take GGCCGGCAUGGUCCCAGCCUCCUCGCUGGCGCCGGCUGGGCAACAUUCGGAGGGGACCGUCCCCUCGGUAAUGGGGAAUGGGACCCA [C49G C75G]: the self-cleavage worked out at 0.299.
For GGCCGGCAUGGUCCCAGCCUCCUCGCUGGCGCCGGCUGGGCAACAUUCGGAGGGGACCGUCCCCUAGGUAAUGGCGAAUGGGACCCA [C49G C66A], the self-cleavage stood at 0.773.
With GGCCGGCAUGGUCCCAGCCUCCUCGCUGGCGCCGGCUGGGCAACAUUCGGAGGGGACCGUCUCCUCGGUAAUGGCGAAUGGGACCCA [C49G C62U] the figure was 0.831.
Regarding GGCCGGCAUGGUCCCAGCCUCCUCGCUGGCGCCGGCUGGGCAACAUUCGGAGGGGACCGUCACCUCGGUAAUGGCGAAUGGGACCCA [C49G C62A], the self-cleavage amounted to 0.739.
Regarding GGCCGGCAUGGUCCCAGCCUCCUCGCUGGCGCCGGCUGGGCAACAUUCGGAGGGGACCGUCCCCUCGGUAAUGGCGAAUGGGACACA [C49G C85A], the self-cleavage amounted to 0.789.
With GGCCGGCAUGGUCCCAGCCUCCUCGCUGGCGCCGGCUGGGCAACAUUCGGAGGGGACCGUCCCCUCGGUAAUGGCGAAUGGGACUCA [C49G C85U] the figure was 0.912; with GGCCGGCAUGGUCCCAGCCUCCUCGCUGGCGCCGGCUGGGCAACAUUCGGAGGGGACCGUCCCCUCGGUAAUGGCGAAUGGGACGCA [C49G C85G], 0.712; with GGCCGGCAUGGUCCCAGCCUCCUCGCUGGCGCCGGCUGGGCAACAUUCGGAUGGGACCGUCCCCUCGGUAAUGGCGAAUGGGACCCA [C49G G52U], 0.48.
GGCCGGCAUGGUCCCAGCCUCCUCGCUGGCGCCGGCUGGGCAACAUUCGGAGGGGACCGUCCCCUCAGUAAUGGCGAAUGGGACCCA [C49G G67A]: the self-cleavage is 0.637.
The figure for GGCCGGCAUGGUCCCAGCCUCCUCGCUGGCGCCGGCUGGGCAACAUUCGGAGGGGACCGUCCCCUCUGUAAUGGCGAAUGGGACCCA [C49G G67U] is 0.9.
The figure for GGCCGGCAUGGUCCCAGCCUCCUCGCUGGCGCCGGCUGGGCAACAUUCGGAGGGGACCGUCCCCUCGGUAAUGGCGAAUCGGACCCA [C49G G80C] is 0.178; for GGCCGGCAUGGUCCCAGCCUCCUCGCUGGCGCCGGCUGGGCAACAUUCGGAGGGGACCGUCCCCUCGGUAAUGGCGAAUUGGACCCA [C49G G80U] it is 0.123; for GGCCGGCAUGGUCCCAGCCUCCUCGCUGGCGCCGGCUGGGCAACAUUCGGAGGGGACCGUCCCCUCGGUAAUGGCGAAUAGGACCCA [C49G G80A] it is 0.465.
With GGCCGGCAUGGUCCCAGCCUCCUCGCUGGCGCCGGCUGGGCAACAUUCGGAGGGGACCGUCCCCUCGGUAAAGGCGAAUGGGACCCA [C49G U72A], the self-cleavage came to 0.0692.
For GGCCGGCAUGGUCCCAGCCUCCUCGCUGGCGCCGGCUGGGCAACAUUCGGAGGGGACCCUCCCCUCGGUAAUGGCGAAUGGGACCCA [C49G G59C], the self-cleavage was found to be 0.793.
The figure for GGCCGGCAUGGUCCCAGCCUCCUCGCUGGCGCCGGCUGGGCAACAUUCGGAGGGGACCUUCCCCUCGGUAAUGGCGAAUGGGACCCA [C49G G59U] is 0.889; for GGCCGGCAUGGUCCCAGCCUCCUCGCUGGCGCCGGCUGGGCAACAUUCGGAGGGGACCGUCCCCACGGUAAUGGCGAAUGGGACCCA [C49G U65A] it is 0.573.
With GGCCGGCAUGGUCCCAGCCUCCUCGCUGGCGCCGGCUGGGCAACAUUCGGAGGGGACCGUCCCCGCGGUAAUGGCGAAUGGGACCCA [C49G U65G] the figure was 0.489.
The figure for GGCCGGCAUGGUCCCAGCCUCCUCGCUGGCGCCGGCUGGGCAACAUUCGGAGGGGACCGUCCCCUCGGUAAUGGCGAAUGCGACCCA [C49G G81C] is 0.196.
For GGCCGGCAUGGUCCCAGCCUCCUCGCUGGCGCCGGCUGGGCAACAUUCGGAGGGUACCGUCCCCUCGGUAAUGGCGAAUGGGACCCA [C49G G55U], the self-cleavage is 0.844.
With GGCCGGCAUGGUCCCAGCCUCCUCGCUGGCGCCGGCUGGGCAACAUUCGGAGGGGACCGUCCCGUCGGUAAUGGCGAAUGGGACCCA [C49G C64G], the self-cleavage came to 0.308.
On to GGCCGGCAUGGUCCCAGCCUCCUCGCUGGCGCCGGCUGGGCAACAUUCGGAGGGGACCGUCCCCUCGGAAAUGGCGAAUGGGACCCA [C49G U69A], for which the self-cleavage is 0.798.
With GGCCGGCAUGGUCCCAGCCUCCUCGCUGGCGCCGGCUGGGCAACAUUCGGAGGGGACCGUCCCCUCGGGAAUGGCGAAUGGGACCCA [C49G U69G] the figure was 0.831; with GGCCGGCAUGGUCCCAGCCUCCUCGCUGGCGCCGGCUGGGCAACAUUCGGAGGGGACCGUCCCCUCGGCAAUGGCGAAUGGGACCCA [C49G U69C], 0.898.
With GGCCGGCAUGGUCCCAGCCUCCUCGCUGGCGCCGGCUGGGCAACAUUCGGAGGGGACCGUCCCCUCGGUAAUGGCCAAUGGGACCCA [C49G G76C], the self-cleavage was 0.982.
The figure for GGCCGGCAUGGUCCCAGCCUCCUCGCUGGCGCCGGCUGGGCAACAUUCGGAGUGGACCGUCCCCUCGGUAAUGGCGAAUGGGACCCA [C49G G53U] is 0.723; for GGCCGGCAUGGUCCCAGCCUCCUCGCUGGCGCCGGCUGGGCAACAUUCGGAGCGGACCGUCCCCUCGGUAAUGGCGAAUGGGACCCA [C49G G53C] it is 0.249; for GGCCGGCAUGGUCCCAGCCUCCUCGCUGGCGCCGGCUGGGCAACAUUCGGAGAGGACCGUCCCCUCGGUAAUGGCGAAUGGGACCCA [C49G G53A] it is 0.475.
With GGCCGGCAUGGUCCCAGCCUCCUCGCUGGCGCCGGCUGGGCAACAUUCGGAGGGGACCGUCCCCUCGGUAAUGGCGAAUGGGACCUA [C49G C86U] the figure was 0.831; with GGCCGGCAUGGUCCCAGCCUCCUCGCUGGCGCCGGCUGGGCAACAUUCGGAGGGGACCGUCCCCUCGGUAAUGGCGAAUGGGACCAA [C49G C86A], 0.966.
